In IntAct's records for PubMed 25588830:

B1: Septin-12 (Homo sapiens), Q8IYM1 (parent)
chain: MDPLRRSPSPCLSSQPSSPSTPPCEMLGPVGIEAVLDQLKIKAMKMGFEFNIMVVGQSGLGKSTMVNTLFKSKVWKSNPPGLGVPTPQTLQLHSLTHVIEEKGVKLKLTVTDTPGFGDQINNDNCWDPILGYINEQYEQYLQEEILITRQRHIPDTRVHCCVYFVPPTGHCLRPLDIEFLQRLCRTVNVVPVIARADSLTMEEREAFRRRIQQNLRTHCIDVYPQMCFDEDINDKILNSKLRDRIPFAVVGADQEHLVNGRCVLGRKTKWGIIEVENMAHCEFPLLRDLLIRSHLQDLKDITHNIHYENYRVIRLNESHLLPRGPGWVNLAPASPGQLTTPRTFKVCRGAHDDSDDEF
partner: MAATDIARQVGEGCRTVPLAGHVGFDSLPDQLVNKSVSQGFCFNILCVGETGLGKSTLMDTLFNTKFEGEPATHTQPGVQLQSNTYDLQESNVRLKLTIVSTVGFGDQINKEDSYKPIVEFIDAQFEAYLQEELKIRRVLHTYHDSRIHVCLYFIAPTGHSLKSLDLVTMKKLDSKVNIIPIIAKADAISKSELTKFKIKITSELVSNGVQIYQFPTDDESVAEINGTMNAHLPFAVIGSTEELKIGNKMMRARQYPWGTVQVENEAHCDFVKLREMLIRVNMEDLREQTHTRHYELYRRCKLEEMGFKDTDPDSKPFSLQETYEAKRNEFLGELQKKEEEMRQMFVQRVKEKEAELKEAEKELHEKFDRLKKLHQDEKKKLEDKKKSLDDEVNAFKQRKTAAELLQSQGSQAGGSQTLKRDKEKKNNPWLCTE
B2: Septin-12 (Homo sapiens), Q8IYM1 (parent)
chain: B1 chain
partner: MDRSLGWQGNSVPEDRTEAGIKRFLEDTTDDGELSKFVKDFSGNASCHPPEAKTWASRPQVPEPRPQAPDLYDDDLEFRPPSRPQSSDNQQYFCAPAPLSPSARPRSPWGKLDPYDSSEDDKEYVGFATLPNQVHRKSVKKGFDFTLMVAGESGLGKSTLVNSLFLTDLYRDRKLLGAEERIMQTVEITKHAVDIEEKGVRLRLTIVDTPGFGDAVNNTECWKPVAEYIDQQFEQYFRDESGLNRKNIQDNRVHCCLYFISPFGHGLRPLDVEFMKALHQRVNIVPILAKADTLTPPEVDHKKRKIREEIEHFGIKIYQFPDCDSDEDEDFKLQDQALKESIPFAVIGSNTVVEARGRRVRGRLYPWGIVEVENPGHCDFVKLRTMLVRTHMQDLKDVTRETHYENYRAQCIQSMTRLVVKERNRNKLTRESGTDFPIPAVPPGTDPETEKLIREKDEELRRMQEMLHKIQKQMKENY
B3: Septin-12 (Homo sapiens), Q8IYM1 (parent)
chain: B1 chain
partner: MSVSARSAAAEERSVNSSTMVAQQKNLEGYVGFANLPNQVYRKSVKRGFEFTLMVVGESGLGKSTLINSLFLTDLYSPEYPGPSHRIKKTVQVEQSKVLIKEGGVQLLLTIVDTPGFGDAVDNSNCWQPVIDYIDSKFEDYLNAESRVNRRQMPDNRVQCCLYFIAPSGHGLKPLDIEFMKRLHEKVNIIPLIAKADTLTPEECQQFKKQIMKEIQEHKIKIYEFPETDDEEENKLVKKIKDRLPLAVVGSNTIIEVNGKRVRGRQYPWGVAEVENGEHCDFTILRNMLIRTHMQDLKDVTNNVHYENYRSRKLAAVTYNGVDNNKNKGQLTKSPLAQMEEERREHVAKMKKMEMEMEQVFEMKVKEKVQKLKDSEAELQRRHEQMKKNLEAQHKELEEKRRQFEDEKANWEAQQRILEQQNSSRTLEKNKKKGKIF
B4: Septin-12 (Homo sapiens), Q8IYM1 (parent)
chain: B1 chain
partner: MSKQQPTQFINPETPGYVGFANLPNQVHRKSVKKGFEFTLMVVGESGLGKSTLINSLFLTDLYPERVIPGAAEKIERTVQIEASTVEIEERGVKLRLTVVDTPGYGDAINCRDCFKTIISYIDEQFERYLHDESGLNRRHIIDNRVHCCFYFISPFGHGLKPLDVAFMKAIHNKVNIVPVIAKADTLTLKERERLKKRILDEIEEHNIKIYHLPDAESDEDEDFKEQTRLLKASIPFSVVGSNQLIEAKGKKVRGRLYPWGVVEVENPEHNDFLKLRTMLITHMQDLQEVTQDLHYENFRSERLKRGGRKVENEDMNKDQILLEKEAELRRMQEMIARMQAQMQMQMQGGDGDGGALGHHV

Variants of: B1
Settings: with sept6_human SEPTIN6, Q14141

Row | effect of a mutation on the interaction | Variant
1 | disrupting interaction | D197N

Variants of: B2
Settings: with sept4_human SEPTIN4, O43236

Row | effect of a mutation on the interaction | Variant
2 | disrupting interaction | D197N

Variants of: B3
Settings: with sept7_human SEPTIN7, Q16181

Row | effect of a mutation on the interaction | Variant
3 | disrupting interaction strength | D197N
4 | disrupting interaction strength | T89M

Variants of: B3
Settings: with sept7_human SEPTIN7, Q16181
Remark: another data set of the same source

Row | effect of a mutation on the interaction | Variant
5 | disrupting interaction | D197N
6 | decreasing interaction | T89M

Variants of: B4
Settings: with sept2_human SEPTIN2, Q15019

Row | effect of a mutation on the interaction | Variant
7 | disrupting interaction | D197N
